Consider three molecules from article PMC9751120 (2022).

Assay in all cases: FP
The target in assay [1] is T1, purified full-length ΔNp63α (human, UniProt Q9H3D4-2 1-586).
T1 chain: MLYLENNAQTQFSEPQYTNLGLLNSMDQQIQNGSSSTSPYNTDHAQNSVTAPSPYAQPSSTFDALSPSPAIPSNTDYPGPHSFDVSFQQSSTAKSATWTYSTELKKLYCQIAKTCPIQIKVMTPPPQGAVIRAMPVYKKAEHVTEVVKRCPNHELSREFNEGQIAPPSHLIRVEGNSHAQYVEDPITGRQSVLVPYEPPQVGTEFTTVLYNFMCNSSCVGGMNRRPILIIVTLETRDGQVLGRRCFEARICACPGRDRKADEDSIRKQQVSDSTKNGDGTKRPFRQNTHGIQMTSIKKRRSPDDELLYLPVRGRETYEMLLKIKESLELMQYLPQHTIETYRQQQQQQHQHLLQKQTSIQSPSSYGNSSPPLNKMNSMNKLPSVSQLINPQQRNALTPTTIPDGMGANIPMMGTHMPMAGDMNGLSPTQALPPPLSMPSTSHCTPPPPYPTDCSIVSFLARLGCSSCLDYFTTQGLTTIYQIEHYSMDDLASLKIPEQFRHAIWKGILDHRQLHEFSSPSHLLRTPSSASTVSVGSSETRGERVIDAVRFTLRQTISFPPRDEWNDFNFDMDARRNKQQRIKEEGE

Assay [2] has as its target T2, purified full-length TAp63α (human).
T2 chain: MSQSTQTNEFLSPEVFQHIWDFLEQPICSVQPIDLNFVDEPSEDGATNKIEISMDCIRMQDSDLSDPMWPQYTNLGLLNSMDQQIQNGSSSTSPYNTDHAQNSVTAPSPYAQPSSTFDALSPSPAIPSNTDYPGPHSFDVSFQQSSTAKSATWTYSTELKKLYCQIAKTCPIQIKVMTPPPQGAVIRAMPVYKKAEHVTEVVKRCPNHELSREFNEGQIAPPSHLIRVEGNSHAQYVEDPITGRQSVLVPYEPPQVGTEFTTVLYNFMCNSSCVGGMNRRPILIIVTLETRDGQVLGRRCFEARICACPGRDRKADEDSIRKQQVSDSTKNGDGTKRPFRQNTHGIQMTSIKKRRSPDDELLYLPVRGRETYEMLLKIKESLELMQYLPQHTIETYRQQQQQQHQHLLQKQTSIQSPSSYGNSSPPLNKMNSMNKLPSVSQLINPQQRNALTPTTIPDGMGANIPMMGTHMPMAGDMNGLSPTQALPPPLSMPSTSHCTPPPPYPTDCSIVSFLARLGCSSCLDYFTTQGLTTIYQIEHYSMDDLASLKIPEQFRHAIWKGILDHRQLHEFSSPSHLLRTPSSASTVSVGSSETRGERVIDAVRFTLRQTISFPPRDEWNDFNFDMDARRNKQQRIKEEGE

The target of assay [3] is T1, purified full-length ΔNp63α.
The target of assay [4] is T2, purified full-length TAp63α.
Assay [5] concerns the target T1, purified full-length ΔNp63α.
Assay [6] addresses T2, purified full-length TAp63α.

Read-outs that look alike come from different tables or passages of the source.

B1: DARPin C14, Alexa 488 labeled (designed binder)
chain: GSDLGKKLLEAAQIGQLDEVRILMANGADVNASDTDGLTPLHLAAASGHLEIVEVLLKTGADVNATDKWGDTPLHLAASQGHLEIVEVLLKAGADVNATDFTGNTPLHLAAYIGHLEIVEVLLKHGADVNAQDKFGKTPFDLAIDNGNEDIAEVLQKAAGGC
modifications: Alexa Fluor 488 C5 maleimide on the introduced C-terminal cysteine
In the case of B1, the Kd (usually the concentration at which binding is half-saturated) came out at 202 nM in assay [1] and 734 nM in assay [2].

B2: DARPin 8F1, Alexa 488 labeled (designed binder)
chain: GSDLGKKLLEAARAGQDDEVRILMANGADVNAADWLGYTPLHLAAWYGHLEIVEVLLKTGADVNARDAYGITPLHLAAYYGHLEIVEVLLKHGADVNAQDKFGKTPFDLAIDNGNEDIAEVLQKAAGGC
modifications: Alexa Fluor 488 C5 maleimide on the introduced C-terminal cysteine
As to B2, the equilibrium dissociation constant (Kd) was 95.6 nM in assay [3] and 6160 nM in assay [4].

B3: DARPin A5, Alexa 488 labeled (designed binder)
chain: GSDLGKKLLEAARAGQDDEVRILMANGADVNAQDQYGWTPLHLAAARGHLEIVEVLLKTGADVNAVDKHGNTPLPLAASVGHLEIVEVLLKAGADVNAQDQFGRTPLHLAAMWGHLEIVEVLLKHGADVNAQDKFGKTAFDISIDNGNEDIVEVLQKAAGGC
modifications: Alexa Fluor 488 C5 maleimide on the introduced C-terminal cysteine
Regarding B3, the figures for the Kd in assay [5] and in assay [6] were 67.9 nM and 296 nM, respectively.
